Patent US20250197491A1 (MACOMICS, published 2025)

Assays:
Human full length LILRB2 [1] = biological target: T1, Human full length LILRB2 (human, UniProt Q8N423 22-597); experiment: flow cytometry on HEK293 cells overexpressing human LILRB2
T1 construct: Over-expressed on HEK293 cells for flow cytometry; Also used here as the parent protein of the D3-D4 peptide microarrays; also called LILRB2 on HEK293 cells
Description: FIG. 7. Binding to LILRB2 over-expressing cell line. HEK293 cells overexpressing full length human LILRB2 (SEQ ID NO: 46) were incubated with various concentrations of test antibodies (Antibody 1 to 5 and Reference Antibody 1).
(§1) Binding to human LILRB1 and LILRB2. HEK293 cells stably expressing full length human LILRB1 (SEQ ID NO: 45), or LILRB2 (SEQ ID NO: 46), or wild-type cells were detached from the culture plates using methods known in art. The cells were then incubated with anti-LILRB1 Ab clones at different concentrations followed by incubation with fluorescently labelled secondary antibodies. The extent of antibody binding to cells stably expressing full-length human LILRB1, or full-length human LILRB2, was determined by flow cytometry and quantified using geometric mean of the fluorescent signal (GEOM).

[2] = biological target: T2, Human LILRB1 (D1-D2) fused to mouse IgG2a Fc (human); experiment: ELISA, antigen coated, 10 nM antibody
T2 construct: also called truncated (D1-D2) version of the LILRB1 ecto-domain
T2 sequence (chain, as listed by the source limits assumed): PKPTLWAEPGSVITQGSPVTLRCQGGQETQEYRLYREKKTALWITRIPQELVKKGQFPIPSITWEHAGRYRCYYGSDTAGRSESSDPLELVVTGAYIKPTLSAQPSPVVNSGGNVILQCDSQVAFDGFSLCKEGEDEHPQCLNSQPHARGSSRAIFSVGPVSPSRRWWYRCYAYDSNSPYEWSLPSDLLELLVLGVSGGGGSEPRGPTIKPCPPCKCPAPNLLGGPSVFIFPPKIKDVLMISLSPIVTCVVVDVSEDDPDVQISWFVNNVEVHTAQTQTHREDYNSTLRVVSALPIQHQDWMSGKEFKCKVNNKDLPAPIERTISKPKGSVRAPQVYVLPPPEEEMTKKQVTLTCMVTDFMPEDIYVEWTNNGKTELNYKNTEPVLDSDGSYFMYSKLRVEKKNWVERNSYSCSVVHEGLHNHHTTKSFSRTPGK
Text: (§2) FIG. 3. Mixed LILRB1 and LILRB2 expression in TAMs from melanoma cancer patients. Analysis of LILRB1 and LILRB2 detection in macrophages in pre- and post-anti-PD-1 and/or anti-CTLA-4 therapy treated melanoma patients (n=33) is shown using Smart-seq2 data from Sade-Feldman et al. https://pubmed.ncbi.nlm.nih.gov/30633907/FIG. 4. Binding to domains of human LILRB1. Plates were coated with recombinant full length LILRB1 ectodomain (SEQ ID NO: 41) or a protein comprising domain 1 and 2 of human LILRB1 protein (SEQ ID NO: 42), and then incubated with 10 nM Clones 1-5, Reference Ab 1, and Isotype control. The bound antibodies were detected using HRP-labeled secondary antibodies and the results were plotted on the graph as absorbance measured at 450 nm.
(§3) Binding to allelic forms of LILRB1. There are 4 major allelic variants of human LILRB1 protein ectodomain. The variants of LILRB1 were expressed as recombinant proteins comprising a modified LILRB1 ectodomain and mouse IgG2 Fc region (SEQ ID NO: 50 and 51) in suspension CHO cells, and purified by using techniques that were known in the art. These recombinant proteins were then used in the direct enzyme-linked immunosorbent assay (ELISA) to determine the antibodies potential to bind different allelic forms of LILRB1. In short, Maxisorp (Nunc) or similar immune-assay plates were coated with solutions of target proteins in PBS, at 4° C., overnight. Plates were then washed with PBS, blocked with 5% milk in PBS, and washed again. Test antibodies diluted in PBS were then added to the plates and incubated at room temperature for at least 1h. Plates were subsequently washed with PBS/0.05% Tween-20 (PBST) and incubated with a solution of horse radish peroxidase (HRP) labelled secondary antibodies at room temperature for at least 1 h. After washing with PBST and PBS, bound antibodies were detected using the 3,3′,5,5;-tetramethylbenzidine (TMB) chromogenic solution. After 5 to 10 minutes, the reaction was stopped with 1% sulphuric acid and absorbance read at 450 nm.
(§4) There are four major allelic variants within the ecto-domain of LILRB1 in human population [Human Molecular Genetics, 2005, Vol. 14, 2469-2480]; namely c.203T>C (L68P), c.277G>A (A93T), c.425T>C (I142T), and c.464G>T (S155I).

[3] = biological target: T3, human LILRB1 ectodomain fused to mIgG2a Fc (human); experiment: ELISA, antigen coated, 10 nM antibody
T3 construct: also called human LILRB1-mIgG2a; full length LILRB1 ectodomain
T3 sequence (chain, as listed by the source limits assumed): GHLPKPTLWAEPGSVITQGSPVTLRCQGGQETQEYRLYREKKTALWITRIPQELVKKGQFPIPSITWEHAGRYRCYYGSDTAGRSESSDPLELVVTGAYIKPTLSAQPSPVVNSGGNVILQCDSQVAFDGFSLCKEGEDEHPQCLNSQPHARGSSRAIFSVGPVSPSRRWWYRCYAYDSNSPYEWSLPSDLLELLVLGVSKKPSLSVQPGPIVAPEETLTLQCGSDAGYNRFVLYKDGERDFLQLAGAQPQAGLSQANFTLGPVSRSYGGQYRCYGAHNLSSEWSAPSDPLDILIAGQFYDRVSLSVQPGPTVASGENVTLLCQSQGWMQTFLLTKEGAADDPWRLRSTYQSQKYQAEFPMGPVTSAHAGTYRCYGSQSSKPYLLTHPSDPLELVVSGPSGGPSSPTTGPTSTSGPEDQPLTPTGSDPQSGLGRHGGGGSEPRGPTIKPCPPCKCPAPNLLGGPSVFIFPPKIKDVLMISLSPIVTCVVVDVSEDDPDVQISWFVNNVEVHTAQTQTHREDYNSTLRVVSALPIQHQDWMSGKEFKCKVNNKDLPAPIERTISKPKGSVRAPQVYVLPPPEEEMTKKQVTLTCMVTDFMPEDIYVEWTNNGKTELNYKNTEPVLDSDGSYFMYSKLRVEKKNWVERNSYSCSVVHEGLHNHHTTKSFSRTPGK
Text: as §2, §3, §4

Human full length LILRB1 = biological target: T4, Human full length LILRB1 (human, UniProt Q8NHL6 24-650); experiment: flow cytometry on HEK293 cells overexpressing human LILRB1
T4 construct: Over-expressed on HEK293 cells for flow cytometry; also called LILRB1 on HEK293 cells; cell membrane embedded LILRB1
T4 sequence (Q8NHL6 24-650 limits assumed): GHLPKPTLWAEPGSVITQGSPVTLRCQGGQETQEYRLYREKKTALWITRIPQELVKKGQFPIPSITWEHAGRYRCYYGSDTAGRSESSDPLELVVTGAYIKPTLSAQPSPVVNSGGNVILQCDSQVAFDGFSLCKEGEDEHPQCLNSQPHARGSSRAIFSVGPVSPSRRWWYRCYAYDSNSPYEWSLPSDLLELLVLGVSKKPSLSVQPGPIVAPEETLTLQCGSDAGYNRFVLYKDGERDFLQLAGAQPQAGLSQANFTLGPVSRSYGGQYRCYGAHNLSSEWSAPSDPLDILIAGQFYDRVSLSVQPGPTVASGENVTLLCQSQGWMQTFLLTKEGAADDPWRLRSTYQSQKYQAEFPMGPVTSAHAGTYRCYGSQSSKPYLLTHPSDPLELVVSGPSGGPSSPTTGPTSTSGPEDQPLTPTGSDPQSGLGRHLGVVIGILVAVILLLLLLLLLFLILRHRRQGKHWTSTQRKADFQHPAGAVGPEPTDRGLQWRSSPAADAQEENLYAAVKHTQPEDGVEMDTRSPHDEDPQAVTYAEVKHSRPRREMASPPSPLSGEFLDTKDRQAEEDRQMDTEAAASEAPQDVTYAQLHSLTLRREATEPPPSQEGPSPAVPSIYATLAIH
Description: FIG. 5. Binding to LILRB1 over-expressing cell line. HEK293 cells overexpressing full length human LILRB1 (SEQ ID NO: 45) were incubated with various concentrations of test antibodies (Antibody 1 to 5 and Reference Ab 1). The bound antibodies were detected using PE-labeled secondary antibodies and analyzed by flow cytometry. A) Plot showing mean fluorescence intensity (MFI), B) EC50 values calculated using data from panel A.
as §1, with “The cells were then incubated with anti-LILRB1 Ab clones at different concentrations followed by incubation with fluorescently labelled secondary antibodies.” left out
The ability of selected anti-LILRB-1 antibodies to bind to the LILRB1 receptor in its native context of the cell membrane was investigated by flow cytometry. HEK293 cells over-expressing full length human LILRB1 (SEQ ID NO: 45) were incubated with the increasing amounts of the antibodies and the cell bound antibodies were detected using PE-labelled secondary antibodies using a flow-cytometer.

Human full length LILRB2 [4] = biological target: T1, Human full length LILRB2; experiment: flow cytometry, displacement of PE-labelled HLA-A2, HLA-E and HLA-G multimers from HEK293 cells overexpressing LILRB2
Description: To investigate if the Antibodies 1 to 5 could neutralize binding of other HLA-As to LILRB1 or to LILRB2, HEK293 cells overexpressing the receptors were incubated with constant concentrations of PE-labelled HLA-A2, HLA-E, and HLA-G multimers and increasing concentrations of Antibodies 1 to 5 or the reference antibodies. The ability to neutralize binding of HLA to the cells was determined by flow cytometry (FIG. 21). None of Antibodies 1 to 5 neutralized binding of HLA-A (A), HLA-E (B), and […] to LILRB1 protein, up to the concentrations of 100 nM, whereas Reference 1 antibody (LILRB1 specific) and Reference 3 antibody (LILRB1/2 specific) neutralized the binding with an IC₅₀ in the sub- or low-nM range. Similarly, none of Antibodies 1 to 5 neutralised efficiently the binding of HLA-A (E) and HLA-G (G). […] Reference Antibody 2 (LILRB2 specific) and Reference Antibody 3 (LILRB1/2 specific), inhibited the binding for all HLAs, with IC₅₀ with sub- or low-nM range.

T1 sequence (Q8N423 other isoform, or with tags, fused parts or gaps limits assumed): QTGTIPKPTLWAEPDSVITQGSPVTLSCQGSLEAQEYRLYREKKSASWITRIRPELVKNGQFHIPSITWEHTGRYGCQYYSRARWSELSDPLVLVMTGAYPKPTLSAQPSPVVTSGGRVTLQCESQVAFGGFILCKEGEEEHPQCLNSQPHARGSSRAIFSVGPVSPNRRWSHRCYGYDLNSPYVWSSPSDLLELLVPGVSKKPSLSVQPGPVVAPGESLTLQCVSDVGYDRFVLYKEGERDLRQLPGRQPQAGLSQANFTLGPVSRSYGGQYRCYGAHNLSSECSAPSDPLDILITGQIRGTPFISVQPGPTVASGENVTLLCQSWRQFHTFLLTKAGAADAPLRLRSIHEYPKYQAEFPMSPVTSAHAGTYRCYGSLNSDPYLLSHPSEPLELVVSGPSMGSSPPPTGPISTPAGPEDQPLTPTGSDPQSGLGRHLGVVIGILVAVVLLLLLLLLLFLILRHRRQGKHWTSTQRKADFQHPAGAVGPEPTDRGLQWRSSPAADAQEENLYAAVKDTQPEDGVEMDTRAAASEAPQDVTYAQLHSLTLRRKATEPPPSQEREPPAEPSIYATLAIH

Binder	binding result (Human full length LILRB2 [1])	binding result [2]	binding result [3]	EC50 (Human full length LILRB1)	binding result (Human full length LILRB2 [4])
Reference Antibody 1 (anti-human LILRB1 Ab) (antibody, V domains shown) VH: DVQLQGSGPGLVKPSETLSLTCSVTGYSITSGYYWNWIRQFPGKKLEWMGYISYDGSNNYNPSLKNRITISRDTSKNQFSLKLNSVTAADTATYYCAHGYSYYYAMDAWGQGTSVTVSS VL: DIQMTQSPSSLSASVGDRVTITCRTSQDISNYLNWYQQKPGKAVKLLISYTSRLHSGVPSRFSGSGSGTDYTLTISSLQPEDFATYYCQQGNTLPTFGQGTKLEIK	no binding	binds	binds	0.73 nM	
Reference antibody 2 (anti-human LILRB2 Ab) (antibody, human IgG4 S228P, lambda, V domains shown) VH: EVQLQQWGAGLLKPSETLSLTCAVYGGSFSGYYWSWIRQPPGKGLEWIGEINHAGSTNYNPSLKSRVTISVDTSKNQFSLKLSSVTAADTAVYYCARLPTRWVTTRYFDLWGRGTLVTVSS VL: ESVLTQPPSVSGAPGQRVTISCTGSSSNIGAGYDVHWYQQLPGTAPKLLIYGDSNRPSGVPDRFSVSKSGASASLAITGLQAEDEADYYCQSFDNSLSAYVFGGGTQLTVLG					binds
